These results are taken from patent US20120134979A1, “METHODS AND COMPOSITIONS FOR THE TREATMENT OF SICKLE CELL DISEASE” (priority 2010, published 2012).

One assay concerns RBCs from SCD patients. Nature of the assay: Hypoxia-induced sickling of RBCs from SCD patients. The settings on record: RBCs from individuals with SCD, hypoxic conditions. In kind it is cell-based, human. The protocol: Isolation of total erythrocytes and treatment of human and mouse erythrocytes in vitro. Blood collected with heparin as an anti-coagulant was centrifuged at 240×g for 10 min at room temperature, followed by aspiration of plasma and white interface. Packed red blood cells (RBCs) were washed 3 times with culture media (F-10 Ham's with 1% penicillin/streptomycin, 10% fetal bovine serum (FBS), and re-suspended to 4% hematocrit (HCT). One ml of RBCs was added to each well of a 12-well plate. Normal RBCs purified from humans were treated with different concentrations of 5′-(N-ethyl-carboxamido) adenosine (NECA, an adenosine receptor agonist, Sigma-Aldrich, St. Louis, Mo.) ranging from 1-50 μM for different time points (from 1 to 18 hr) under normoxic conditions. Normal RBCs were treated with 10 μM NECA in the presence or absence of adenosine receptor antagonists, including theophylline, PSB36, SCH442416, MRS1754 and MRS3777 (Tocris Bioscience, St. Louis, Mo.) at 10 μM. In addition, normal RBCs were treated directly with the A2BR agonist (BAY 60-6583, Bayer HealthCare AG, Wuppertal, Germany) or the A2AR agonist (CGS21680) (Tocris). Similarly, the mouse RBCs were treated with or without NECA at 10 μM in the presence or absence of theophylline (10 μM). In addition, RBCs purified from 4 adenosine receptor deficient mice were treated with 10 μM NECA. After 18 hours, cells were collected and 2,3-DPG levels were measured as described below. RBCs were purified from SCD patients and treated with or without 10 μM NECA, 5 units/ml polyethylene glycol-adenosine deaminase (PEG-ADA) or 3 mmol/L glycolic acid (Sigma-Aldrich), 10 μM MRS1754 (A2BR antagonist) under ambient oxygen (normoxia) or different levels of hypoxic conditions (for 3 hours with shaking at 37° C. At the end of experiments, 2,3-DPG levels were measured and the percentage of sickled cells determined as described below.
(§1) Morphological study of erythrocytes and quantification of reticulocytes by flow cytometry. Blood smears were stained using the WG16-500 ml kit (Sigma-Aldrich) for sickled cells and observed using 100× oil immersion objective of Olympus BX60 microscope. […] The percentages of sickled cells among the counted cells were calculated. Reticulocyte was labeled by Retic-COUNT Reagent (Becton Dickinson) and quantified by flow cytometry (Perumbeti, et al., A novel human gamma-globin gene vector for genetic correction of sickle cell anemia in a humanized sickle mouse model: critical determinants for successful correction. Blood. 2009; 114(6):1174-1185).

For assay [1], the system named is SCD Tg mice. Nature of the assay: Urine measurements (proteinuria, osmolality) in SCD Tg mice after chronic PEG-ADA. In kind it is in vivo, mouse. The protocol: (§2) Chronic PEG-ADA therapy. SCD transgenic mice, at eight weeks of age, were divided to two groups. One group was injected with 2.5 U PEG-ADA weekly for 8 weeks. This dosing protocol was designated SCD with PEG-ADA treatment regimen (SCD+PEG-ADA). Another group was injected with normal saline for 8 weeks; it was designated as SCD without PEG-ADA treatment regimen (SCD). Wild-type mice (C57Bl/6) used as control were injected with saline or PEG-ADA as with the SCD groups.
Mouse urine collection and measurements. Urine was collected using a metabolic cage (Bioseb, France) for proteinuria and creatinine analysis using a commercially available kit (Exocell, Philadelphia) as described Zhou, et al. Angiotensin receptor agonistic autoantibodies induce pre-eclampsia in pregnant mice. Nat. Med. 2008; 14(8):855-862). For urine osmolality analysis, mice were deprived of water for 24 hours, then urine was collected on Parafilm, transferred to 1.5 ml tube, the urine was diluted 10 times with distilled water and measured with vapor pressure osmometer (Wescor, Logan, Utah).

For assay [2], the system named is SCD Tg mice. Nature of the assay: Hematological parameters of SCD Tg mice treated with PEG-ADA or PSB1115 for 8 weeks. Type of assay: in vivo, mouse. The settings on record: 8 weeks treatment.
Source text: Mice. Berkley sickle cell disease transgenic mice (SCD Tg mice), expressing exclusively human sickle hemoglobin (HbS) were purchased from The Jackson Laboratory Inc (Paszty, C. Transgenic and gene knock-out mouse models of sickle cell anemia and the thalassemias. Curr Opin Hematol 4, 88-93, 1997). C57BL/6 mice used as controls were purchased from Harlan Laboratories. Adenosine receptor deficient mice were obtained from the following sources: A1R-deficient mice (Jurgen Schnermann, NIDDK, NIH); A2AR-deficient mice (Jiang-Fan Chen, Boston University School of Medicine); A2BR-deficient mice (Michael R. Blackburn, University of Texas-Houston Medical School); and A3R-deficient mice (Marlene Jacobson, Merck Research Laboratories). All receptor deficient mice were backcrossed at least 10 generations onto the C57Blk/6J background and were genotyped according to established protocols (Sun, D., et al. Mediation of tubuloglomerular feedback by adenosine: evidence from mice lacking adenosine receptors. Proc Natl Acad Sci USA 98, 9983-9988, 2001; Nemeth, Z. H., et al. Adenosine receptor activation ameliorates type 1 diabetes. FASEB J, 2007; Chen, J. F., et al. A2A adenosine receptor deficiency attenuates brain injury induced by transient focal ischemia in mice. J Neurosci 19, 9192-9200, 1999; Salvatore, C. A., et al. Disruption of the A3 adenosine receptor gene in mice and its effect on stimulated inflammatory cells. The Journal of Biological Chemistry 275, 4429-4434, 2000). Animals were maintained in accordance with institutional and NIH guidelines under research protocols that were reviewed and approved by the University of Texas Health Science Center at Houston Animal Welfare Committee.
as §2
Chronic treatment with A2BR antagonist, PSB1115. SCD transgenic mice or wild type mice (eight weeks of age) were divided to two groups, one groups was injected with 200 μg of PSB1115 (an A2B receptor antagonist: obtained from Tocris Bioscience, St. Louis, Mo.) in PBS, daily for 8 weeks. One of groups was injected with saline.
as §1

B1: PEG-ADA: polyethylene glycol-modified adenosine deaminase, a drug used to lower adenosine concentrations in ADA-deficient humans (protein, UniProt P56658 2-363, looked up)
Adenosine deaminase: AQTPAFNKPKVELHVHLDGAIKPETILYYGRKRGIALPADTPEELQNIIGMDKPLSLPEFLAKFDYYMPAIAGCREAVKRIAYEFVEMKAKDGVVYVEVRYSPHLLANSKVEPIPWNQAEGDLTPDEVVSLVNQGLQEGERDFGVKVRSILCCMRHQPSWSSEVVELCKKYREQTVVAIDLAGDETIEGSSLFPGHVKAYAEAVKSGVHRTVHAGEVGSANVVKEAVDTLKTERLGHGYHTLEDATLYNRLRQENMHFEVCPWSSYLTGAWKPDTEHPVVRFKNDQVNYSLNTDDPLIFKSTLDTDYQMTKNEMGFTEEEFKRLNINAAKSSFLPEDEKKELLDLLYKAYGMPSPASAEQCL
modifications: PEGylated
With B1, the “percentage of sickled cells” value in the assay with RBCs from SCD patients is reported as “significantly reduced”. In addition, in the assay on SCD Tg mice [1], the proteinuria result was “decreased” and the urine osmolality entry is recorded as “increased”. In addition, in the assay with SCD Tg mice [2], the HCT amounted to 30.15 ± 8.90 %, the Hb amounted to 7.71 ± 2.64 g/dL, the MCH was 12.38 ± 2.85 pg and the MCHC was found to be 25.33 ± 1.21 g/dL. Further, in the assay on SCD Tg mice [2], the MCV worked out at 48.58 ± 8.79 fL, the RDW is given as 28.03 ± 1.14 %, the Reticulocyte is reported as 43 ± 4.52 % and the Sickle cell is on record as 10.35 ± 0.39 %. The molecule also registered a WBC with SCD Tg mice [2] of 15.00 ± 2.79 k/μl. This molecule also displayed an RBC in the assay with SCD Tg mice [2] (mean ± SEM) of 6.15 ± 1.01 M/μl.
